The values below come from the nanobody polyreactivity screen of Harvey et al. (2022).

The nature of the data set: yeast display, Sf9 membrane polyspecificity reagent, FACS + sequencing; frameworks hold sequencing errors. The method, boiled down: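 Nanobodies came from a synthetic yeast display library in Saccharomyces cerevisiae BJ5465, induced with galactose for 36–48 hours and stained for 1 hour at 4 °C with 10% biotinylated, detergent-solubilized Sf9 membrane reagent. Cells were enriched on streptavidin microbeads and then FACS-sorted, with low and high (top ~1%) gates set on anti-HA fluorescence for expression and streptavidin fluorescence for reagent binding. Each polyreactivity label reflects the gate a clone came from. Genes were amplified by colony PCR, sequenced by MiSeq 2 × 250 and filtered by CDR length.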
With “QVQLVESGVGLVQAVGSHRLSCAASGFTIINNDMGWYRQAPGKEREFVAAISDSDGTTYYADSVKGRFSISRDNAKNTVYLQMNSLKPEDTAVYYCAADVVPTWEDEYWGQGTQVTVSS”, the “polyreactivity (PSR sort gate)” value was “low polyreactivity”. In the case of “QVQLVESGVGLVQAVGSLRISCAACGSIFGRYGMGWYRQAPGKERELVAAITSGTRTNYADSVKGRFTISRDNAKNTVYLQMNSLKPEDTAVYYCNALRLRGIYEYGYWGLGTQVTVSS”, the “polyreactivity (PSR sort gate)” value is listed as “low polyreactivity”. On to “QVQLVESGVGLVQAVGSLRLSCAASGIILHYYAMGWYRQAPGKERELVAAISARGGRTYYADSVKGRFTISRDNAKNTVYLQMNSLKPEDTAVYYCAKDTRRSGVSTYTGNMDYWGHGTQVTVSS”, for which the “polyreactivity (PSR sort gate)” value was “high polyreactivity”. To “QVQLVESGVGLVQAVGSLRLSCAASGSILITNAMGWYRQAPGKERELVAAISSGGSTYYADSVKGRFTISRDNAKNTVYLQMNSLKPEDTAVYYFAADQLKVGREYVEYDYWGQGTQVTVSS” belongs “low polyreactivity”; to “QVQLVESGVGSVQAGGSLRLSCAASGATFPGNAMGWYRQAPGKERELVAAIRDRGTSTYDADSVKGRFTISRDNAKNTVYLQMNSLKPEDTAVYYCAAASRVAKGRWRLYDYWGQGTQVTLSS”, “high polyreactivity”; to “QVQLVESGVRVVQAGGSLRLRCAASGFTFRDYTMGWYRQAPGKERELVAAISRSGGSTYYADSVKGRFTISRDNAKNTVDLQMNSLKPEDTAVYYCAALWHAVSYADYDYWGQGTQVTVSS”, “high polyreactivity”. To “QVQLVESRAGLVQAGGSLRLSCAASGRTSWVYAMGWYRHAPGKDRELVAAIRWRGSSTYYADSGKGRFTISRDNAKNTVYLQMNSLKPEVTAVYYCAAAFSFAQSFDSWGQGTQVTVSS” belongs “high polyreactivity”; to “QVQLVESRGGLLQAGGSLRLSCAASGIIFGHYDMGWYRQAPGKEWELVAAITFTGDSTYYADSVKGRFTISRDNAKHTVYLQMNSLKPEDTAVYYCAAETPVPWGSWGYDYWGQGTQVTVSS”, “low polyreactivity”. Turning to “QVQLVESRGGLLQAGGTLRLSCAASGLTITTYTMGWSIQAPGTERELVASINYRGGRTYYADSVKGRFSISRDNAKNTVYLQMNSLKPEDTAVYYCAKSRYYRRRQYYHYDYCGQGTQVTVSS”, the “polyreactivity (PSR sort gate)” value is “high polyreactivity”.

As for “QVQLVESRGGLVQAGGSLGLSCAASGPTFFYNAMGWYRQAPGKERELVAAISSGGGSTYYADSVKGRFTISRDNAKNTVYLQMNSLKPEDTAVYYCAGASYRQPGYGYWGQGTLVTVSS”, the “polyreactivity (PSR sort gate)” value was “high polyreactivity”.

“QVQLVESRGGLVQAGGSLRISCAASGSTFVAYAMGWYRQAPAKERELVAAISYSGGSTYYADSVKGRFTISRDYAKNTVSLQMNCLKPEDTAVYYCAAEWSRHYYYGPRYDYWGQGTQVSVSS”: the “polyreactivity (PSR sort gate)” value is given as “low polyreactivity”. As for “QVQLVESRGGLVQAGGSLRLSCAASGATFNHYAMGWYRQAPGKERELVAAITKSGGSTYADSVKGRFTISRDNAKKTVYLQMNSLKPEDTAVYYCAAGRRKYGTKGRGDYWGQGSQVTVSS”, the “polyreactivity (PSR sort gate)” value was “low polyreactivity”. On to “QVQLVESRGGLVQAGGSLRLSCAASGFIFDKYAMGWYRQAPGKERELVATITSGGSTYYADSVKGRFTISRDNAKNTVYLQMNSLKPEDTAVYYCAALDYGYRWYRYYYWGQGTQVTVSS”, for which the “polyreactivity (PSR sort gate)” value is reported as “high polyreactivity”.

Turning to “QVQLVESRGGLVQAGGSLRLSCAASGFIFSSYAMGWYRQAHGKERELVAAITSGGSTNYADSVKGRFTISRDNAKNTVYLQMNSLKPEDTAVYYCATVPGGSWFFHWWSTGGDDEYWGQGTQVTVSS”, the “polyreactivity (PSR sort gate)” value is given as “low polyreactivity”.

With “QVQLVESRGGLVQAGGSLRLSCAASGFIFWYYAMGWYRQAPGKERALVAAINWSGTSTNYADSVKGRFTISRDNAKNTVYLQMNSLIPEDTAVYYCNTRIWSSSYDVTYDYWGQGTQVTVSS”, the “polyreactivity (PSR sort gate)” value is recorded as “low polyreactivity”. Next, “QVQLVESRGGLVQAGGSLRLSCAASGFTFYLNALGWYRPAPGKERELVAAISYSDGSTYYADSVKGRFTISRDNAKNTVYLQMNSLKPEDTAVYYCAADTTDPGGAYQLMDYCGQGTQVTVSS”: “high polyreactivity”.
